The values below come from the supplement of paper PMC10724198.

± gives the standard deviation of the averaged measurements.
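Further: PSI is a weighted mean of sequencing reads over stability bins, variants kept only with over 10 reads, mCherry proximal and sfGFP distal, peptide attached via GGGS linker.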

This data set has as its system Saccharomyces cerevisiae. Put plainly: protein stability index of tFT-peptide fusion (C-terminal peptide) (PSI (0-1 scale)); higher = more stable (slower turnover). The settings on record: genetic background: wild type; temperature: 30 C. On the procedure: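 Multiplexed protein stability (MPS) profiling in S. cerevisiae. Random 12-aa peptides (tFT-X12 library) are fused to the C-terminus of a sfGFP-mCherry tandem fluorescent timer, after mCherry and a GGGS linker. Cells are FACS-sorted into 8 mCherry/sfGFP bins and deep-sequenced. The protein stability index (PSI) is the read-weighted bin average, scaled from 0 (unstable) to 1 (stable). Only peptides with >10 reads are reported; cells were grown at 30 °C in SC-His with glucose.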
In turn, GKRKKERGGGER displayed a protein stability index of 0.711 ± 0.093.
Regarding GKRRCRREVERK, the protein stability index stood at 0.695 ± 0.018.
GKRTGRKKRRKR came in with a protein stability index of 0.638 ± 0.095.
On to GKRWPSINKGPV, for which the protein stability index stood at 0.6851 ± 0.0051.
The sequence GKVGGQGGKGVV gave a protein stability index of 0.765 ± 0.13.
GLACWALLTCNR showed a protein stability index of 0.726 ± 0.015.
Turning to GLCPALQFPLHE, the protein stability index worked out at 0.68 ± 0.024.
In turn, GLCRRLDRQLAN registered a protein stability index of 0.6787 ± 0.0026.
In turn, GLFAPVGLGFGL displayed a protein stability index of 0.724 ± 0.012.
For the sequence GLGACMVNELLG, the protein stability index amounted to 0.648 ± 0.018.
Next, GLGGGVGGWLVV: 0.705 ± 0.041; GLGGRFSWVDGV: 0.756 ± 0.012.
GLGGRVWSDMGG returned a protein stability index of 0.745 ± 0.11.
The sequence GLGTIYGGEWWW showed a protein stability index of 0.759 ± 0.085.
Sequence GLGWGGVGVAGV gave a protein stability index of 0.705 ± 0.076.
In the case of GLKVVENWIECA it was 0.555 ± 0.044; in that of GLNPPDPYPVSF, 0.754 ± 0.11; in that of GLPLPPPHPFSL, 0.7793 ± 0.0021.
In the case of GLPPPAPRRPDL it was 0.664 ± 0.0077; in that of GLPSSYLSALFR, 0.708 ± 0.029.
Next, GLQFRPFCVLEL: 0.634 ± 0.013; GLSPPLCSTPSR: 0.736 ± 0.0092; GLSWTVDDGHGG: 0.683 ± 0.039.
For the sequence GLVGGLCIGRLV, the protein stability index worked out at 0.672 ± 0.024.
Sequence GLVVCDGGGVGC had a protein stability index of 0.684 ± 0.14.
Turning to GLWIRAEISLVS, the protein stability index is 0.575 ± 0.016.
In turn, GLYCDDSYPRPH had a protein stability index of 0.666 ± 0.1.
In the case of GMCWTEGNTAVL it was 0.697 ± 0.06; in that of GMDGRGGGGSVV, 0.723 ± 0.039; in that of GMLSIHWNIGGT, 0.725 ± 0.014.
With GMRGGGGWCRGW, the protein stability index was 0.671 ± 0.043.
Next, GMRILRLIHVIP: 0.571 ± 0.031; GMSRLFTYRAAS: 0.72 ± 0.0091; GMTYWFCSFPFF: 0.686 ± 0.04.
In the case of GMVTCTSPRCHK it was 0.694 ± 0.016; in that of GNFDRVSMTKFR, 0.73 ± 0.035.
In the case of GNSGAFTPSTQW it was 0.687 ± 0.055; in that of GPAPAPPALSSC, 0.745 ± 0.0089.
Consider GPCFPRRSAPSD, for which the protein stability index was 0.67 ± 0.046.
As to GPCSSMFGLRYT, the protein stability index turned out to be 0.672 ± 0.033.
For GPDSSYLITPRR, the protein stability index was 0.755 ± 0.065.
Next, GPEAVARIFDDE: 0.708 ± 0.0095; GPFHILSSATRP: 0.705 ± 0.054; GPGGVGVTSGGK: 0.679 ± 0.062.
Regarding GPGSCPVRLCGF, the protein stability index amounted to 0.661 ± 0.0074.
Next, GPGVFGGFRTEK: 0.648 ± 0.056; GPLVGGDGRWVG: 0.706 ± 0.011; GPPPAWALCYPL: 0.601 ± 0.023.
In the case of GPPPLRLWPLPV it was 0.618 ± 0.079; in that of GPPPPLFAPWPF, 0.656 ± 0.027; in that of GPPRDLARKAGL, 0.708 ± 0.065.
In the case of GPRGGRLSWAPG it was 0.62172 ± 0.00044.
Sequence GPRVLCNCHLRD yielded a protein stability index of 0.688 ± 0.0083.
GPSATPPGPGLR: the protein stability index was 0.792 ± 0.052.
In the case of GPSVWRPSESLV it was 0.748 ± 0.03.
Next, GPTPPRSPPAVS: 0.646 ± 0.055; GPTPSVKGDRDT: 0.632 ± 0.044.
In the case of GPVAYSMDILVE it was 0.66 ± 0.058; in that of GPVHVRGVGFGF, 0.73 ± 0.02; in that of GPVRIDSPFKSA, 0.733 ± 0.017.
The sequence GPVVAGRLWLWV had a protein stability index of 0.641 ± 0.046.
For the sequence GQCHYSSFPVRQ, the protein stability index worked out at 0.732 ± 0.011.
Regarding GQCRTELVGLWE, the protein stability index was 0.664 ± 0.13.
In the case of GQEGQIPPGNVH it was 0.709 ± 0.011.
